IntAct's records for PubMed 19001025

B1: Nucleolar protein 3 (Rattus norvegicus (Rat)), Q62881 (parent)
chain: MGNMQERPSETIDRERKRLVETLQADSGLLLDALVARGVLTGPEYEALDALPDAERRVRRLLLLVQSKGEAACQELLRCAQQTVSMPDPAWDWQHVGPGYRDRSYDPPCPGHWTPEAPSSGTTCPGLPRASEEEEIGGPEDSEAVQPRTPEEPELEAEATKGDEPDLEQEMEPEPEPEVEPEPEPEPEPEPEPEPEPEPEPEPEREPDFQEGDESEGCENT
partner: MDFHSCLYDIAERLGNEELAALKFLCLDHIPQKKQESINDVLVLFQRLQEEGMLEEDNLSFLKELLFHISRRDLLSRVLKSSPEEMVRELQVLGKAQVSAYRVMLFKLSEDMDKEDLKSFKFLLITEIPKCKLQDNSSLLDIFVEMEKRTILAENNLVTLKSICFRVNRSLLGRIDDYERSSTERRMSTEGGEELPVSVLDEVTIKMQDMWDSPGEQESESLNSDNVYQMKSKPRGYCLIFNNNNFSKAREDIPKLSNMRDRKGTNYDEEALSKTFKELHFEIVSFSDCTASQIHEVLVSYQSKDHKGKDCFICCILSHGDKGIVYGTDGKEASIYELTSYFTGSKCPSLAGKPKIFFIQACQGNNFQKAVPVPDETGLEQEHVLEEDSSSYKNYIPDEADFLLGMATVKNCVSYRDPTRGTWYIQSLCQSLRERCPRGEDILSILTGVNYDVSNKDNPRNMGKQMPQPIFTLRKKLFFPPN

Variants of: B1
Conditions: with casp8_rat Casp8, Q9JHX4

MGNMQERPSETIDRERKRLVETLQADSGLLLDALVARGVLTGPEYEALDALPDAERRVRRLLLLVQSKGEAACQELLRCAQQTVSMPDPAWDWQHVGPGYRDRSYDPPCPGHWTPEAPSSGTTCPGLPRASEEEEIGGPEDSEAVQPRDPEEPELEAEATKGDEPDLEQEMEPEPEPEVEPEPEPEPEPEPEPEPEPEPEPEPEREPDFQEGDESEGCENT [T149D] was tested. Which “effect of a mutation on the interaction” value did it give?
The value was “disrupting interaction”.
